Laboratory results from paper PMC3460625 (PLoS Pathogens, 2012).

Biological target: T1, Nup98 (endogenous) (human (endogenous in HEK 293 and HeLa), UniProt P52948 1-880)
T1 construct: also called nucleoporin Nup98
T1 sequence (looked up): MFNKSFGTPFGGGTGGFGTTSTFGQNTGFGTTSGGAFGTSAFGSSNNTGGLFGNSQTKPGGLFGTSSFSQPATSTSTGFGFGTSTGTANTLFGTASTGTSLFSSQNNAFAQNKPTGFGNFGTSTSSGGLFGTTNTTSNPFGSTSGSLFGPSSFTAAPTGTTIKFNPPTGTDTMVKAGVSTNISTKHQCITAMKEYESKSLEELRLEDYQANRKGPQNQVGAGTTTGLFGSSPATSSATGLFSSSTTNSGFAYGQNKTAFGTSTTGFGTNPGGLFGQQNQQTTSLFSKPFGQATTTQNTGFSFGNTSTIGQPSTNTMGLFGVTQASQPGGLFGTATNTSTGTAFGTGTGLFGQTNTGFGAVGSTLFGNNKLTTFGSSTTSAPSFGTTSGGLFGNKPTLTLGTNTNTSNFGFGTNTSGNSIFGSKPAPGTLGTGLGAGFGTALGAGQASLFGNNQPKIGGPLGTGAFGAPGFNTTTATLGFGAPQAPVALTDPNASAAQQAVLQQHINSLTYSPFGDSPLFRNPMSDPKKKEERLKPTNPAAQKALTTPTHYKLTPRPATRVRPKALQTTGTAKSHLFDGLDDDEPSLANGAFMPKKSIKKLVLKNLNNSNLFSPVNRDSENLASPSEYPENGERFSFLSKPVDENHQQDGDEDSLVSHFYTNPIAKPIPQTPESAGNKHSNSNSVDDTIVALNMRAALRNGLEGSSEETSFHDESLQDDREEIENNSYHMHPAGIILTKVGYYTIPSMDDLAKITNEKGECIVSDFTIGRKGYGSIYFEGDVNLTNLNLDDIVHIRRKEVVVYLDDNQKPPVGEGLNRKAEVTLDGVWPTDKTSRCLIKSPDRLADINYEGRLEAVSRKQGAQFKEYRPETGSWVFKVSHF
Test: SEC + other: sucrose gradient sedimentation
Settings: partners not purified

B1: Rae1 (endogenous) (natural protein, human (endogenous in HEK 293 and HeLa), UniProt P78406 1-368, looked up)
chain: MSLFGTTSGFGTSGTSMFGSATTDNHNPMKDIEVTSSPDDSIGCLSFSPPTLPGNFLIAGSWANDVRCWEVQDSGQTIPKAQQMHTGPVLDVCWSDDGSKVFTASCDKTAKMWDLSSNQAIQIAQHDAPVKTIHWIKAPNYSCVMTGSWDKTLKFWDTRSSNPMMVLQLPERCYCADVIYPMAVVATAERGLIVYQLENQPSEFRRIESPLKHQHRCVAIFKDKQNKPTGFALGSIEGRVAIHYINPPNPAKDNFTFKCHRSNGTNTSAPQDIYAVNGIAFHPVHGTLATVGSDGRFSFWDKDARTKLKTSEQLDQPISACCFNHNGNIFAYASSYDWSKGHEFYNPQKKNYIFLRNAAEELKPRNKK
notes: also called host Rae1; cellular Rae1
- stoichiometry N: 1
